Measurements as given in US7897729.

Target: FcγRIII (CD16) (human) (UniProt P08637)
Assay: cell-based or functional assay

Chain of FcγRIII (CD16) (human) (P08637 17-254): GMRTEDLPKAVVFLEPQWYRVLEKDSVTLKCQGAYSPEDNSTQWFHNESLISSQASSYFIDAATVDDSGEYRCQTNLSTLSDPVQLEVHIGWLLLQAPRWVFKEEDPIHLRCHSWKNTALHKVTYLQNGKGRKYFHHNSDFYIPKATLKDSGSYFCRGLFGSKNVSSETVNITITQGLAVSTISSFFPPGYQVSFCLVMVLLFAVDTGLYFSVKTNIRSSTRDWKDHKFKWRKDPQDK

Row | IFN-γ secretion from PBMC, immobilized anti-CD16 mAb (10 µg/ml) + IL-2 [ng/mL] | TNF-α secretion from PBMC, immobilized anti-CD16 mAb (10 µg/ml) + IL-2 [ng/mL] | proliferative response of PBMC ([3H]thymidine), IL-2 and immobilized anti-CD16 mAb [CPM] | proliferative response of PBMC ([3H]thymidine), immobilized anti-CD16 mAb alone, no IL-2 [CPM] | IFN-γ secretion from PBMC, aggregated IgG (40 µg/ml) + IL-2 [ng/mL] | TNF-α secretion from PBMC, aggregated IgG (40 µg/ml) + IL-2 [ng/mL] | fold induction of PBMC proliferation over IL-2, 125 µg/mL of AIG [fold] | proliferative response of PBMC, 125 µg/mL of AIG and IL-2 [CPM] | Substance
1 | 9.85 | 3.32 | 15500 | 592 |  |  |  |  | anti-CD16 mAb 3G8 (antibody)
2 |  |  |  |  | 13 | 2.46 | 16 | 17400 | heat aggregated IgG (AIG)
